Read-outs that look alike come from different tables or passages of the source.

We go through six molecules from patent US20170313781A1 (IMMUNOMEDICS, published 2017).

Experiment [1] concerns the target human Trop-2 on the surface of human tumor cells (human) (UniProt P09758). Nature of the experiment: cell binding on NCI-N87 cells, anti-mouse-HRP, luminescence.
Experiment [2] shares this target. Nature of the experiment: cell binding on NCI-N87 cells, Bmax compared to RS7.
Experiment [3] deals with recombinant human neonatal receptor (FcRn) (human) (UniProt P55899). Description: SPR (BIACORE), low-density FcRn chip, three runs, 400 to 25 nM. On the technique in general: Surface plasmon resonance follows binding to a sensor surface in real time, without labels.
The target in experiment [4] is human Trop-2 on the surface of human tumor cells (human) (UniProt P09758). Nature of the experiment: cell binding assay.
For experiment [5], the target named is rhTrop-2/TACSTD2 (Sino Biological, Inc.) immobilized on a CM5 sensor chip (human) (UniProt P09758). Description: SPR (BIACORE), low-density recombinant human Trop-2 chip, three runs.
For experiment [6], the target named is human Trop-2 on the surface of human tumor cells (human) (UniProt P09758). Description: cell-based or functional assay.
The target of experiment [7] is recombinant human neonatal receptor (FcRn) (human) (UniProt P55899). Nature of the experiment: SPR (BIACORE), FcRn chip.
Experiment [8] concerns the target rhTrop-2/TACSTD2 (Sino Biological, Inc.) immobilized on a CM5 sensor chip (human) (UniProt P09758). Description: SPR (BIACORE), Trop-2 chip.
Experiment [9] concerns the target T1, human Trop-2 on the surface of human tumor cells (human, UniProt P09758 27-323).
T1 construct: whole, on cells; also called EGP-1; TACSTD2
T1 sequence (looked up): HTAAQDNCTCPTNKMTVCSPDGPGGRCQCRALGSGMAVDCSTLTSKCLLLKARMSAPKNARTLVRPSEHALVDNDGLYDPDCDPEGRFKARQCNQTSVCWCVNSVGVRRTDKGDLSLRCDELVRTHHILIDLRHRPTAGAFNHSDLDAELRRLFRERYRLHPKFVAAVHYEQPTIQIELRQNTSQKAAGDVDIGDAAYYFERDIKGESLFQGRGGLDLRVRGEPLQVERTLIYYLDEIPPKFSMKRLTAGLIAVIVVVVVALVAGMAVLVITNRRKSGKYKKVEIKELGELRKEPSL
Nature of the experiment: cell binding on NCI-N87 cells, anti-mouse-HRP, luminescence.

Experiment [10] concerns the target human Trop-2 on the surface of human tumor cells (human) (UniProt P09758). Description: cell-based or functional assay. This is another data set of the same source.
For experiment [11], the target named is recombinant human Trop-2 with a His-tag (Sino Biological, Cat#10428-H09H) (human) (UniProt P09758). Nature of the experiment: ELISA on Ni-NTA strips coated with recombinant His-tagged human Trop-2.

recombinant human neonatal receptor (FcRn) (human), sequence (P55899 24-297 limits assumed, chain 1 of 2): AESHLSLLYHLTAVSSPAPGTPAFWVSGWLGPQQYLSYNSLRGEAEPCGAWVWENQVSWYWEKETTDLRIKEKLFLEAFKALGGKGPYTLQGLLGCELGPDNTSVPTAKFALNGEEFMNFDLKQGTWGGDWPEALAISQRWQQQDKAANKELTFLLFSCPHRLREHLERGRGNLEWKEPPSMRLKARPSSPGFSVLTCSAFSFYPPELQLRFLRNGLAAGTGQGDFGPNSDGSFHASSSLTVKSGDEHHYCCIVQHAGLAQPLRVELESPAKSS
recombinant human neonatal receptor (FcRn) (human), sequence (P61769 21-119 limits assumed, chain 2 of 2, further chain): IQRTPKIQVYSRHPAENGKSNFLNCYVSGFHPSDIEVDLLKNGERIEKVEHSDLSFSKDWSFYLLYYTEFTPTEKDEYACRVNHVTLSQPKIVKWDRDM

The term Kd denotes the free concentration of one partner at which half of the binding sites on the other are occupied at equilibrium, for simple one-to-one binding. In the case of “162-46.2 murine monoclonal antibody against human Trop-2”, in experiment [1], the Kd turned out to be 0.52 nM and the maximum binding (Bmax) (relative luminescent units) is 8470. The reduction of Bmax against RS7 in experiment [2] worked out at 25%.

In [1], “MAB650 murine monoclonal antibody against human Trop-2 (R&D Systems)” showed a Kd of 0.49 nM and a maximum binding (Bmax) (relative luminescent units) of 6020. Further, the reduction of Bmax against RS7 in experiment [2] stood at 50%.

For the molecule “sacituzumab govitecan (IMMU-132, hRS7-CL2A-SN-38) (antibody)”, the Kd in [3] is 192 nM. The same molecule displayed a Kd in experiment [4] of 1.2 nM. Besides, in [5], the Kd worked out at 0.26 nM. For the same molecule, in [6], the ADCC, percent specific lysis of MDA-MB-468 cells (LDH release, E:T 50:1, 33.3 nM) is 8.6%; the median fluorescence intensity of anti-rH2AX-AF488 staining (dsDNA breaks), HCC1806 (Trop-2+) cells stood at 546 MFI; the γH2AX induction in BxPC-3 cells, Mean Fluorescence Intensity worked out at 5350 MFI; the γH2AX induction in BxPC-3 cells, Percent Positive was determined as 69%. For the same molecule, the fold decrease in fold change of average binding level (reference not named; the comparison in paragraph 543 is with hRS7) in experiment [7] stood at 2 fold. In experiment [8], the fold improvement of KD against naked hRS7 stood at 2 fold.

B1: murine RS7 anti-Trop-2 monoclonal antibody (antibody, V domains shown)
VH: VKLQESGPELKKPGETVKISCKASGYTFTNYGMNWVKQAPGKGLKWMGWINTYTGEPTYTDDFKGRFAFSLETSATTAYLQINNLKSEDMATYFCARGGFGSSYWYFDVWGQGTTVTVSS
VL: DIQLTQSHKFMSTSVGDRVSITCKASQDVSIAVAWYQQKPGQSPKLLIYSASYRYTGVPDRFTGSGSGTDFTFTISSVQAEDLAVYYCQQHYITPLTFGAGTKLELK
The molecule B1 returned a Kd in experiment [9] of 0.57 nM.

B2: humanized RS7 (hRS7) anti-Trop-2 IgG (antibody, INN chains, looked up, V domains shown)
VH: QVQLQQSGSELKKPGASVKVSCKASGYTFTNYGMNWVKQAPGQGLKWMGWINTYTGEPTYTDDFKGRFAFSLDTSVSTAYLQISSLKADDTAVYFCARGGFGSSYWYFDVWGQGSLVTVSS
VL: DIQLTQSPSSLSASVGDRVSITCKASQDVSIAVAWYQQKPGKAPKLLIYSASYRYTGVPDRFSGSGSGTDFTLTISSLQPEDFAVYYCQQHYITPLTFGAGTKVEIK
As for B2, the Kd amounted to 92.4 nM in experiment [3], 0.51 nM in experiment [5] and 0.3 nM in [11]. Also, in experiment [10], the ADCC, percent specific lysis of BxPC-3 cells (PBMC effectors, E:T 100:1, 33.3 nM) came out at 8.5%. For the same molecule, in experiment [10], the ADCC, percent specific lysis of MDA-MB-468 cells (LDH release, E:T 50:1, 33.3 nM) was 29.8%.

B3: hRS7-CL2-SN-38 (antibody, INN chains, looked up, V domains shown)
VH: B2 VH
VL: B2 VL
modifications: SN-38 via CL2 linker
Consider B3, for which, in [4], the Kd was found to be 1.2 nM.
